The results in this text go back to US20220324969A1 (MYTHIC THERAPEUTICS, published 2022).

Numbering of substitutions follows the chain as printed. In names and notes the source's numbering stands.

B1: MYT0482 (antibody, V domains shown)
VH: EVQLVQSGAEVKKPGSSVKVSCKASHYTITDSNIHWVRQAPGQSLEWIGYIYPYNGGTDYNQKFKNRATLTVDNPTNTAYMELSSLRSEDTDFYYCVNGNPWLAYWGQGTLVTVSS
VL: DIQLTQSPSTLSASVGDRVTITCRASESLDNYGIRFLTWFQQKPGKAPKLLMYAASNQGSGVPSRFSGSGSGTEFTLTISSLQPDDFATYYCQQTKEVPWSFGQGTKVEVK
notes: IgG; gemtuzumab VH variant #1 (G26H)
B2: MYT0497 (antibody, V domains shown)
VH: B1 VH with H26G, N55H
VL: B1 VL
notes: IgG; gemtuzumab VH variant #16 (N55H)
B3: MYT0490 (antibody, V domains shown)
VH: B1 VH with H26G, I34H
VL: B1 VL
notes: IgG; gemtuzumab VH variant #9 (I34H)
B4: MYT0494 (antibody, V domains shown)
VH: B1 VH with H26G, Y52H
VL: B1 VL
notes: IgG; gemtuzumab VH variant #13 (Y52H)
B5: MYT0484 (antibody, V domains shown)
VH: B1 VH with H26G, T28H
VL: B1 VL
notes: IgG; gemtuzumab VH variant #3 (T28H)
B6: MYT0488 (antibody, V domains shown)
VH: B1 VH with H26G, S32H
VL: B1 VL
notes: IgG; gemtuzumab VH variant #7 (S32H)
B7: MYT0493 (antibody, V domains shown)
VH: B1 VH with H26G, I51H
VL: B1 VL
notes: IgG; gemtuzumab VH variant #12 (I51H)
B8: MYT0496 (antibody, V domains shown)
VH: B1 VH with H26G, Y54H
VL: B1 VL
notes: IgG; gemtuzumab VH variant #15 (Y54H)
B9: MYT0487 (antibody, V domains shown)
VH: B1 VH with H26G, D31H
VL: B1 VL
notes: IgG; gemtuzumab VH variant #6 (D31H)
B10: MYT0483 (antibody, V domains shown)
VH: B1 VH with H26G, Y27H
VL: B1 VL
notes: IgG; gemtuzumab VH variant #2 (Y27H)
B11: MYT0485 (antibody, V domains shown)
VH: B1 VH with H26G, I29H
VL: B1 VL
notes: IgG; gemtuzumab VH variant #4 (I29H)
B12: MYT0489 (antibody, V domains shown)
VH: B1 VH with H26G, N33H
VL: B1 VL
notes: IgG; gemtuzumab VH variant #8 (N33H)
B13: MYT0492 (antibody, V domains shown)
VH: B1 VH with H26G, Y50H
VL: B1 VL
notes: IgG; gemtuzumab VH variant #11 (Y50H)
B14: MYT0486 (antibody, V domains shown)
VH: B1 VH with H26G, T30H
VL: B1 VL
notes: IgG; gemtuzumab VH variant #5 (T30H)
B15: MYT2656 (antibody, V domains shown)
VH: QVQLVQSGAEVKKPGASVKVSCKASGYTFTNYDINWVRQAPGQGLEWIGWIYPGDGSTKYNEKFKAKATLTADTSTSTAYMELRSLRSDDTAVYYCASGYEDAMDYWGQGTTVTVSS
VL: DIQMTQSPSSLSASVGDRVTINCKASHDINSYLSWFQQKPGKAPKTLIYRANRLVDGVPSRFSGSGSGQDYTLTISSLQPEDFATYYCLQYDEFPLTFGGGTKVEIK
notes: IgG; vadastuximab VL variant #4 (Q27H)
B16: MYT2675 (antibody, V domains shown)
VH: B15 VH
VL: B15 VL with H27Q, E93H
notes: IgG; vadastuximab VL variant #23 (E93H)
B17: MYT2667 (antibody, V domains shown)
VH: B15 VH
VL: B15 VL with H27Q, R53H
notes: IgG; vadastuximab VL variant #15 (R53H)
B18: MYT2665 (antibody, V domains shown)
VH: B15 VH
VL: B15 VL with H27Q, A51H
notes: IgG; vadastuximab VL variant #13 (A51H)
B19: MYT2668 (antibody, V domains shown)
VH: B15 VH
VL: B15 VL with H27Q, L54H
notes: IgG; vadastuximab VL variant #16 (L54H)
B20: MYT2677 (antibody, V domains shown)
VH: B15 VH
VL: B15 VL with H27Q, P95H
notes: IgG; vadastuximab VL variant #25 (P95H)
B21: MYT2670 (antibody, V domains shown)
VH: B15 VH
VL: B15 VL with H27Q, D56H
notes: IgG; vadastuximab VL variant #18 (D56H)
B22: MYT2679 (antibody, V domains shown)
VH: B15 VH
VL: B15 VL with H27Q, T97H
notes: IgG; vadastuximab VL variant #27 (T97H)
B23: MYT2676 (antibody, V domains shown)
VH: B15 VH
VL: B15 VL with H27Q, F94H
notes: IgG; vadastuximab VL variant #24 (F94H)
B24: MYT2672 (antibody, V domains shown)
VH: B15 VH
VL: B15 VL with H27Q, Q90H
notes: IgG; vadastuximab VL variant #20 (Q90H)
B25: MYT2671 (antibody, V domains shown)
VH: B15 VH
VL: B15 VL with H27Q, L89H
notes: IgG; vadastuximab VL variant #19 (L89H)
B26: MYT2662 (antibody, V domains shown)
VH: B15 VH
VL: B15 VL with H27Q, L33H
notes: IgG; vadastuximab VL variant #10 (L33H)
B27: MYT2669 (antibody, V domains shown)
VH: B15 VH
VL: B15 VL with H27Q, V55H
notes: IgG; vadastuximab VL variant #17 (V55H)
B28: MYT2674 (antibody, V domains shown)
VH: B15 VH
VL: B15 VL with H27Q, D92H
notes: IgG; vadastuximab VL variant #22 (D92H)
B29: MYT2659 (antibody, V domains shown)
VH: B15 VH
VL: B15 VL with H27Q, N30H
notes: IgG; vadastuximab VL variant #7 (N30H)
B30: MYT2660 (antibody, V domains shown)
VH: B15 VH
VL: B15 VL with H27Q, S31H
notes: IgG; vadastuximab VL variant #8 (S31H)
B31: MYT2664 (antibody, V domains shown)
VH: B15 VH
VL: B15 VL with H27Q, R50H
notes: IgG; vadastuximab VL variant #12 (R50H)
B32: MYT2657 (antibody, V domains shown)
VH: B15 VH
VL: B15 VL with H27Q, D28H
notes: IgG; vadastuximab VL variant #5 (D28H)
B33: MYT2658 (antibody, V domains shown)
VH: B15 VH
VL: B15 VL with H27Q, I29H
notes: IgG; vadastuximab VL variant #6 (I29H)
B34: MYT2666 (antibody, V domains shown)
VH: B15 VH
VL: B15 VL with H27Q, N52H
notes: IgG; vadastuximab VL variant #14 (N52H)

The target in the first test is T1, CD33 (Sino Biological, Cat #12238-H08H) (UniProt P20138 18-259). Put plainly: BLI, IgG captured on anti-human Fc sensor, 50 nM CD33, pH 7.4 vs pH 5.0. The source says: Multiple CD33-binding monoclonal antibodies have been described in the literature and can be used as a template for engineering pH-dependent binding (Hamann P R et al (2002) “Gemtuzumab ozogamicin, a potent and selective anti-CD33 antibody-calicheamicin conjugate for treatment of acute myeloid leukemia.” Bioconjug Chem 13(1):47-58). Gemtuzumab (Heavy chain SEQ ID NO: 1, Light chain SEQ ID NO: 2) was selected as a CD33-binding monoclonal antibody for pH engineering via histidine scanning. Briefly, CDRs in the heavy chain were identified using the methods described by Kabat et al (Kabat et al. (1992) Sequences of Proteins of Immunological Interest, DIANE publishing) and IMGT (Lefranc M P (1999) “The IMGT unique numbering for Immunoglobulins, T cell receptors and Ig-like domains” The Immunologist 7, 132-136), and for each CDR, residues falling under either or both Kabat and IMGT CDR definitions were called as CDR residues. To generate pH-dependent sequence variants, individual amino acid residues within the heavy chain CDRs were systematically substituted with a histidine, one at a time (MYT0482-MYT0517). In cases where the starting CDR residue was a histidine, it was mutated to an alanine. Antibody variants with only one histidine or alanine mutation in a heavy chain CDR were generated by co-transfection of Expi293 cells with a) one heavy chain sequence variant, and b) the corresponding starting ABPC light chain using methods known to the art. After allowing for four days of protein expression, cell culture supernatants were collected, quantified by SDS-PAGE analysis, (FIG. 1), and the pH dependence of the variant was evaluated using biolayer interferometry (BLI) on an Octet RED 384 instrument. Briefly, cell culture supernatants were normalized to an antibody expression level of 25 μg/mL, and captured on an anti-human Fc sensor (Forte Bio). A baseline was established using 1×PBST (50 mM Potassium Phosphate Buffer+150 mM NaCl+0.05% Tween 20) pH 7.4, and the sensor was associated with 50 nM of CD33 (Sino Biological, Cat #12238) in 1×PBST pH 7.4 for 120 sec to generate an association curve. In the dissociation phase, the antibody-antigen complex on the sensor was exposed to 1×PBST pH 7.4 for 300-600 sec. Baseline, association, and dissociation were repeated using 1×MES (100 mM MES Buffer+150 mM NaCl+0.05% Tween 20) pH 5.0 throughout in a separate condition.
T1 sequence (P20138 18-259 limits assumed): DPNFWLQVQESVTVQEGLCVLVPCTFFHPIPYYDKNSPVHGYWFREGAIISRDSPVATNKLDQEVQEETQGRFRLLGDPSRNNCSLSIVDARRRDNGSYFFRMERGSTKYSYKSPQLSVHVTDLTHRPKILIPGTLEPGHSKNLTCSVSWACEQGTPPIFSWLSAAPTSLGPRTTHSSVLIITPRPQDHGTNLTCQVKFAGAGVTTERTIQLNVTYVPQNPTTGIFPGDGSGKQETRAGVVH
On the technique in general: Biolayer interferometry detects binding as a change in optical thickness at a sensor tip.
Take B1: the binding result is recorded as “binds”. In the case of B2, the binding result is recorded as “binds”.

Turning to B3, the binding result was “binds”. With B4, the binding result was “binds”. In the case of B5, the binding result is recorded as “binds”. Turning to B6, the binding result was “binds”. Turning to B7, the binding result was “binds”.

With B8, the binding result is listed as “binds”. The same measure, in the same setting: the result for B9 reads “binds”; that for B10, “binds”; that for B11, “binds”. On the same count and under the same terms, the value for B12 was “binds”.

For B13, the binding result is given as “binds”. On to B14, for which the binding result was “binds”.

A further test concerns the target T1, CD33 (Sino Biological, Cat #12238-H08H). Put plainly: BLI, IgG captured on anti-human Fc sensor, 50 nM CD33, pH 7.4 vs pH 5.4.
For the molecule B15, the binding result was “binds”.

Take B16: the binding result is “binds”. Consider B17, for which the binding result is “binds”. Regarding B18, the binding result is listed as “binds”. As to B19, the binding result is “binds”. As for B20, the binding result is given as “binds”.

Turning to B21, the binding result was “binds”. Take B22: the binding result is “binds”. In the case of B23, the binding result was “binds”. B24: the binding result was “binds”. Still for that read-out and setting: the value for B25 was “binds”. With B26, the binding result is listed as “binds”. B27: the binding result is listed as “binds”. For B28, the binding result is “binds”. As for B29, the binding result is recorded as “binds”. Consider B30, for which the binding result is “binds”. On the same count and under the same terms, the result for B31 reads “binds”. Regarding B32, the binding result is “binds”. As for B33, the binding result was “binds”.

Consider B34, for which the binding result is “binds”.
